{"source": "FireProtDB (doi:10.1021/bi00815a015)", "proteins": {"B1": {"name": "Guanyl-specific ribonuclease T1 wild type, P00651 (protein)", "chain": "MMYSKLLTLTTLLLPTALALPSLVERACDYTCGSNCYSSSDVSTAQAAGYQLHEDGETVGSNSYPHKYNNYEGFDFSVSSPYYEWPILSSGDVYSGGSPGADRVVFNENNQLAGVITHTGASGNNFVECT"}}, "conditions": "Aspergillus oryzae (strain ATCC 42149 / RIB 40), Thermal, DSC, whole UniProt chain shown", "key": {"[1]": {"conditions": "pH 0.36, glycine 0.2 N, HCl, reversible: yes"}, "[2]": {"conditions": "pH 1.05, HCl, NaCl 0.2 N, reversible: yes"}, "[3]": {"conditions": "pH 2.02, glycine 0.2 N, reversible: yes"}, "[4]": {"conditions": "pH 2.8, glycine 0.2 N, reversible: yes"}, "[5]": {"conditions": "pH 3.28, glycine 0.2 N, reversible: yes"}, "[6]": {"conditions": "pH 4.04, acetate 0.2 N, reversible: no"}, "[7]": {"conditions": "pH 5, acetate 0.2 N, reversible: no"}, "[8]": {"conditions": "pH 6.23, acetate 0.2 N, reversible: no"}, "[9]": {"conditions": "pH 7, None, NaCl 0.2 N, reversible: no"}, "[10]": {"conditions": "pH 7.8, None, NaCl 0.2 N, reversible: no"}}, "note": "Where “and” joins values, the source holds several entries; their conditions need not be identical. Equal entries are not always repeated."}
{"protein": "B1", "values": [{"measurement": "Tm", "setting": "pH 0.36, HCl, reversible: yes", "result": 25, "unit": "°C"}, {"measurement": "unfolding enthalpy (calorimetric)", "setting": "pH 0.36, HCl, reversible: yes", "result": 48.7, "unit": "kcal/mol"}, {"measurement": "Tm", "setting": "[1]", "result": 31.5, "unit": "°C"}, {"measurement": "heat capacity change of unfolding", "setting": "[1]", "result": 1.9, "unit": "kcal/mol/K"}, {"measurement": "unfolding enthalpy (calorimetric)", "setting": "[1]", "result": 61.2, "unit": "kcal/mol"}, {"measurement": "unfolding enthalpy (van 't Hoff)", "setting": "[1]", "result": 62, "unit": "kcal/mol"}, {"measurement": "Tm", "setting": "[2]", "result": 25, "unit": "°C"}, {"measurement": "unfolding enthalpy (calorimetric)", "setting": "[2]", "result": 49.1, "unit": "kcal/mol"}, {"measurement": "Tm", "setting": "[3]", "result": 31.2, "unit": "°C"}, {"measurement": "heat capacity change of unfolding", "setting": "[3]", "result": 1.98, "unit": "kcal/mol/K"}, {"measurement": "unfolding enthalpy (calorimetric)", "setting": "[3]", "result": 65.6, "unit": "kcal/mol"}, {"measurement": "unfolding enthalpy (van 't Hoff)", "setting": "[3]", "result": 67, "unit": "kcal/mol"}, {"measurement": "heat capacity change of unfolding", "setting": "[4]", "result": 2.11, "unit": "kcal/mol/K"}, {"measurement": "unfolding enthalpy (calorimetric)", "setting": "[4]", "result": "87.7 kcal/mol and 54.8 kcal/mol"}, {"measurement": "unfolding enthalpy (van 't Hoff)", "setting": "[4]", "result": 68, "unit": "kcal/mol"}, {"measurement": "Tm", "setting": "[5]", "result": 25, "unit": "°C"}, {"measurement": "unfolding enthalpy (calorimetric)", "setting": "[5]", "result": 63.4, "unit": "kcal/mol"}, {"measurement": "heat capacity change of unfolding", "setting": "[6]", "result": 2.08, "unit": "kcal/mol/K"}, {"measurement": "unfolding enthalpy (calorimetric)", "setting": "[6]", "result": "126 kcal/mol and 69.2 kcal/mol"}, {"measurement": "unfolding enthalpy (van 't Hoff)", "setting": "[6]", "result": 64, "unit": "kcal/mol"}, {"measurement": "heat capacity change of unfolding", "setting": "[7]", "result": 2.25, "unit": "kcal/mol/K"}, {"measurement": "unfolding enthalpy (calorimetric)", "setting": "[7]", "result": "151 kcal/mol and 77.2 kcal/mol"}, {"measurement": "unfolding enthalpy (van 't Hoff)", "setting": "[7]", "result": 60, "unit": "kcal/mol"}, {"measurement": "heat capacity change of unfolding", "setting": "[8]", "result": 2.05, "unit": "kcal/mol/K"}, {"measurement": "unfolding enthalpy (calorimetric)", "setting": "[8]", "result": "156 kcal/mol and 81.2 kcal/mol"}, {"measurement": "unfolding enthalpy (van 't Hoff)", "setting": "[8]", "result": 66, "unit": "kcal/mol"}, {"measurement": "heat capacity change of unfolding", "setting": "[9]", "result": 2.07, "unit": "kcal/mol/K"}, {"measurement": "unfolding enthalpy (calorimetric)", "setting": "[9]", "result": "168 kcal/mol and 92.9 kcal/mol"}, {"measurement": "unfolding enthalpy (van 't Hoff)", "setting": "[9]", "result": 88, "unit": "kcal/mol"}, {"measurement": "heat capacity change of unfolding", "setting": "[10]", "result": 2, "unit": "kcal/mol/K"}, {"measurement": "unfolding enthalpy (calorimetric)", "setting": "[10]", "result": "178 kcal/mol and 106 kcal/mol"}, {"measurement": "unfolding enthalpy (van 't Hoff)", "setting": "[10]", "result": 72, "unit": "kcal/mol"}]}
